What was measured:
[1] = target: acidic patch mutant (APM) unmodified 147bp nucleosome (H2A E61A, E64S, N68A, D72S, N89A, D90A, E91S); assay: EMSA; details: 0-32 µM KDM5A^MutR titrated against APM 147bp nucleosome
KDM5ACAT = assay: EMSA; details: Nucleosome EMSA: 100 nM nucleosome, 50 mM HEPES pH 7.5, 50 mM KCl, 1 mM BME, 0.01% Tween-20, 0.01% BSA, 5% sucrose, 1 h on ice, DNA EMSA: 100 nM DNA, TE …
[2] = target: acidic patch mutant (APM) H3K4me3 147bp nucleosome (human); assay: native gel or EMSA; direct binding: 100 nM nucleosome, varying concentrations of KDM5A; 50 mM HEPES pH 7.5, 50 mM KCl, 1 mM BME, 0.01% Tween-20, 0.01% BSA, 5% sucrose; 1 hour on ice; 7.5% gel at 4°C, SYBR gold; fit with Hill slope
[3] = target: acidic patch mutant (APM) unmodified 147bp nucleosome (H2A E61A, E64S, N68A, D72S, N89A, D90A, E91S) (human); assay: as above
[4] = target: acidic patch mutant (APM) H3K4me3 147bp nucleosome (human)

KDM5A^CAT (KDM5A 1–801, minimal catalytically active construct), sequence (P29375 1-801): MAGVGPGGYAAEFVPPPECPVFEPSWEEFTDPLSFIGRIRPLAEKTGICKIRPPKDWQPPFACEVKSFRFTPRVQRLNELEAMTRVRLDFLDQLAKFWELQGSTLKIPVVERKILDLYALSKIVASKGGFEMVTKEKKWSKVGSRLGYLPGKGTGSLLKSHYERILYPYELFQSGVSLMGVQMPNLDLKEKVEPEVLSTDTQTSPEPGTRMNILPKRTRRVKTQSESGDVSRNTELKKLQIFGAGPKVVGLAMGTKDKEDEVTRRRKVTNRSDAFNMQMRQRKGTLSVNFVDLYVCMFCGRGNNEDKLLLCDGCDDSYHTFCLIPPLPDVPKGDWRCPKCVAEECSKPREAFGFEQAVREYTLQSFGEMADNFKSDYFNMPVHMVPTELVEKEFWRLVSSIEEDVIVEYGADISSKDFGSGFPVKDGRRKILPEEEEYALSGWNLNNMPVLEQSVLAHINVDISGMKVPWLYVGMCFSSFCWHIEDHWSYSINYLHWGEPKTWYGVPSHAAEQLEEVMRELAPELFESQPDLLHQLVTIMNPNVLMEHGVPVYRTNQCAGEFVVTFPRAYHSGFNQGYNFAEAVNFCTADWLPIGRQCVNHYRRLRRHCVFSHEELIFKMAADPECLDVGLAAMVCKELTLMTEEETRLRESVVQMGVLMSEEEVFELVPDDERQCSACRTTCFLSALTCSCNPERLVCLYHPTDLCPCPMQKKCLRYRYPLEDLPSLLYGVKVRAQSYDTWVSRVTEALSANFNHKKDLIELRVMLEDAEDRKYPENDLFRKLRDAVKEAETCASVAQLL

Question: How did the Kd [1] turn out when “KDM5A^CAT (KDM5A 1–801, minimal catalytically active construct) (from UniProt P29375) R210A; R217A; R219A; R220A; R232A; R264A; R265A; R266A; R271A; R280A; R282A” was run?
Answer: 14 µM

Question: For 147bp nucleosome, wild-type unmodified, which binding signal (KDM5ACAT; scale: fold higher affinity than APM 147bp nucleosome) is on record?
Answer: 3

Question: For H3K4me3 APM nucleosome, which binding signal (KDM5ACAT; H3K4me3, H2A E61A;E64S;N68A;D72S;N89A;D90A;E91S, scale: fold lower affinity vs wild-type H3K4me3 nucleosome) is on record?
Answer: 2

Question: Which fold lower affinity relative to wild-type H3K4me3 nucleosome [2] does the source give for “KDM5A^CAT (KDM5A 1–801, minimal catalytically active construct) (from UniProt P29375 1-801) (domain or fragment)” here?
Answer: 2 fold

Question: What about the fold loss in affinity relative to wild-type 147bp nucleosome [3] of the same substance?
Answer: 3 fold

Question: And the fold decrease in demethylation of H3K4me3 on APM 147bp nucleosomes relative to wild-type nucleosomes, western blot, single turnover (5 μM KDM5A enzyme, 50 nM substrate) [4]?
Answer: 9 fold

Question: 147bp APM nucleosome, unmodified was tested. Which binding signal (KDM5ACAT; H2A E61A;E64S;N68A;D72S;N89A;D90A;E91S, scale: fold loss in affinity vs wild-type 147bp nucleosome) did it give?
Answer: 3

From article doi:10.1101/2025.05.01.651538
